Test results as given in publication PMC12361432.
Where a chain is given by its changes, count along the chain named. Names may count otherwise. Each block holds one molecule with its values, some of them ahead of it.

Assays:
[1] = biological target: CCR9 Y202A (human)
[2] = biological target: CCR9 K40A (human)
[3] = biological target: CCR9 R44A (human)
[4] = biological target: CCR9 K211A (human)
[5] = biological target: CCR9 Y126A (human); test: flow cytometry on cells; TAMRA-labeled chemokine (four concentrations, highest 300 nM used to compare mutants) incubated 1 h with HEK293T cells expressing WT or mutant CCR9 in FACS buffer (1x PBS, 1 mM EDTA, 1% BSA); median fluorescence; nonspecific binding on parental HEK293T cells; binding ratios mutant:WT
[6] = biological target: CCR9 F299A (human); test: as above
[7] = biological target: CCR9 D296A (human)
[8] = biological target: CCR9 S292A (human)
[9] = biological target: T1, TAMRA-labeled CCL25 (CCL25(1-73), norleucine 64, C-terminal azidolysine coupled to TAMRA-PEG4-DBCO); test: flow cytometry on cells; settings: chain shown with the change; 300 nM TAMRA-CCL25; HEK293T cells; read off a plot
T1 chain: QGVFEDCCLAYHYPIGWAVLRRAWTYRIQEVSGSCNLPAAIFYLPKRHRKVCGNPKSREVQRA

B3: C-C chemokine receptor 9 (CCR9), wild type D296A (protein)
chain: MTPTDFTSPIPNMADDYGSESTSSMEDYVNFNFTDFYCEKNNVRQFASHFLPPLYWLVFIVGALGNSLVILVYWYCTRVKTMTDMFLLNLAIADLLFLVTLPFWAIAAADQWKFQTFMCKVVNSMYKMNFYSCVLLIMCISVDRYIAIAQAMRAHTWREKRLLYSKMVCFTIWVLAAALCIPEILYSQIKEESGIAICTMVYPSDESTKLKSAVLTLKVILGFFLPFVVMACCYTIIIHTLIQAKKSSKHKALKVTITVLTVFVLSQFPYNCILLVQTIDAYAMFISNCAVSTNIAICFQVTQTIAFFHSCLNPVLYVFVGERFRRDLVKTLKNLGCISQAQWVSFTRREGSLKLSSMLLETTSGALSL
- ratio to parent [9]: 0.81

B4: C-C chemokine receptor 9 (CCR9), wild type K211A (protein)
chain: B3 chain with K211A, A296D
- ratio to parent [9]: 1.1

B5: C-C chemokine receptor 9 (CCR9), wild type R44A (protein)
chain: B3 chain with R44A, A296D
- ratio to parent [9]: 0.61

B6: C-C chemokine receptor 9 (CCR9), wild type K40A (protein)
chain: B3 chain with K40A, A296D
- ratio to parent [9]: 0.83

Other lines, results leading:

- CCL25-induced Ca^2+ mobilization in HEK293T cells expressing the CCR9 mutant, area under the concentration-response curve against WT (CCL25 without dye) [1]: < 15%
- CCL25-induced Ca^2+ mobilization in HEK293T cells expressing the CCR9 mutant, area under the concentration-response curve against WT (CCL25 without dye) [2]: < 15%
- CCL25-induced Ca^2+ mobilization in HEK293T cells expressing the CCR9 mutant, area under the concentration-response curve against WT (CCL25 without dye) [3]: < 15%
- CCL25-induced Ca^2+ mobilization in HEK293T cells expressing the CCR9 mutant, area under the concentration-response curve against WT (CCL25 without dye) [4]: < 15%
- fold change in binding against WT CCR9 [5]: 2.5 fold
- fold change in binding against WT CCR9 [6]: 2.2 fold
- CCL25-induced Ca^2+ response in HEK293T cells expressing the CCR9 mutant, percent of WT output (CCL25 without dye) [7]: 15%
- CCL25-induced Ca^2+ response in HEK293T cells expressing the CCR9 mutant, percent of WT output (CCL25 without dye) [8]: 48%
Molecule: TAMRA-labeled CCL25 (CCL25(1-73), norleucine 64, C-terminal azidolysine coupled to TAMRA-PEG4-DBCO) (ligand)

- ratio to parent [9]: 0.73
B1: C-C chemokine receptor 9 (CCR9), wild type Y202A (protein)
chain: B3 chain with Y202A, A296D

- ratio to parent [9]: 0.66
B2: C-C chemokine receptor 9 (CCR9), wild type S292A (protein)
chain: B3 chain with S292A, A296D
